B1: CPEB3 Ribozyme (parent)
chain: GGGGGCCACAGCAGAAGCGUUCACGUCGCGGCCCCUGUCAGAUUCUGGUGAAUCUGCGAAUUCUGCUGU

Variants of: B1
Experiment: self-cleavage, relative activity (ratio to wild type); higher = more cleavage; co-transcriptional
GGGGGCCACAGCAGAAGCUUUCACGUCGCGGCCCCUGUCAGAGUCUGGUGAAUCUGCGAAUUCUGCUGU [G19U U43G] gave a self-cleavage of 0.223. For GGGGGCCACAGCAGAAGCUUUCACGUCGCGGCCCCUGUCAGAUUCUGGUGAAUCUGCGAAUUCUGCUCU [G19U G68C], the self-cleavage was 0.791. With GGGGGCCACAGCAGAAGCUUUCACGUCGCGGCCCCUGUCAGAUUCUGGUGAAUCUGCGAAUUCUGCUUU [G19U G68U] the self-cleavage was 0.738. In the case of GGGGGCCACAGCAGAAGCUUUCACGUCGCGGCCCCUGUCAGAUUCUGGUGAAUCUGCGAAUGCUGCUGU [G19U U62G], the self-cleavage is reported as 0.251. In the case of GGGGGCCACAGCAGAAGCUUUCACGUCGCGGCCCCUGUCAGAUUCUGGUGAAUCUGCGAAUACUGCUGU [G19U U62A], the self-cleavage is reported as 0.244. Variant GGGGGCCACAGCAGAAGCUUUCACGUCGCGGCCCCUGUCAGAUUCUGGUGAAUCUGCGAAUCCUGCUGU [G19U U62C] has a self-cleavage of 0.256. Work on GGGGGCCACAGCAGAAGCUUUCACGUCGCGGCCCCUGUCAGAUUCUGGUGAAUCUGCGAAUUCUGCGGU [G19U U67G] yielded a self-cleavage of 0.546. GGGGGCCACAGCAGAAGCUUUCACGUCGCGGCCCCUGUCAGAUUCUGGUGAAUCUGCGAAUUCUGCCGU [G19U U67C] showed a self-cleavage of 0.461. GGGGGCCACAGCAGAAGCUUUCACGUCGCGGCCCCUGUCAGAUUCUGGUGAAUCUGCGAAUUCUGCAGU [G19U U67A] showed a self-cleavage of 0.479. In the case of GGGGGCCACAGCAGAAGCUCUCACGUCGCGGCCCCUGUCAGAUUCUGGUGAAUCUGCGAAUUCUGCUGU [G19U U20C], the self-cleavage is reported as 0.166. Work on GGGGGCCACAGCAGAAGCUAUCACGUCGCGGCCCCUGUCAGAUUCUGGUGAAUCUGCGAAUUCUGCUGU [G19U U20A] yielded a self-cleavage of 0.0978. Variant GGGGGCCACAGCAGAAGCUUUCACGUCGCGGCCCCUGGCAGAUUCUGGUGAAUCUGCGAAUUCUGCUGU [G19U U38G] has a self-cleavage of 0.201. In the case of GGGGGCCACAGCAGAAGCUUUCACGUCGCGGCCCCUGACAGAUUCUGGUGAAUCUGCGAAUUCUGCUGU [G19U U38A], the self-cleavage is reported as 0.227. Work on GGGGGCCACAGCAGAAGCUUUCACGUCGCGGCCCCUGUCAGAUUCAGGUGAAUCUGCGAAUUCUGCUGU [G19U U46A] yielded a self-cleavage of 0.591. Variant GGGGGCCACAGCAGAAGCUUUCACGUCGCGGCCCCUGUCAGAUUCGGGUGAAUCUGCGAAUUCUGCUGU [G19U U46G] has a self-cleavage of 0.596. For GGGGGCCACAGCAGAAGCUUUCACGUCGCGGCCCCUGUCAGAUUCCGGUGAAUCUGCGAAUUCUGCUGU [G19U U46C], the self-cleavage was 0.499. Variant GGGGGCCACAGCAGAAGCUUUCACGUCGCGGCCCCUGUCAGAUUCUGGUGAAUCUACGAAUUCUGCUGU [G19U G56A] has a self-cleavage of 0.301. Variant GGGGGCCACAGCAGAAGCUUUCACGUCGCGGCCCCUGUCAGAUUCUGGUGAAUCUCCGAAUUCUGCUGU [G19U G56C] has a self-cleavage of 0.222. In the case of GGGGGCCACAGCAGAAGCUUUCACGUCGCGGCCCCUGUCAGAUUCUGGUGAAUCUGCGAACUCUGCUGU [G19U U61C], the self-cleavage is reported as 0.194. For GGGGGCCACAGCAGAAGCUUUCACGUCGCGGCCCCUGUCAGAUUCUGGUGAAUCUGCGAAAUCUGCUGU [G19U U61A], the self-cleavage was 0.217. Work on GGGGGCCACAGCAGAAGCUUUCACGUCGCGGCCCCUGUCAGAUUCUGGUGAAUCUGCGAAGUCUGCUGU [G19U U61G] yielded a self-cleavage of 0.262. Work on GGGGGCCACAGCAGAAGCUUUCACGACGCGGCCCCUGUCAGAUUCUGGUGAAUCUGCGAAUUCUGCUGU [G19U U26A] yielded a self-cleavage of 0.272. GGGGGCCACAGCAGAAGCUUUCACGGCGCGGCCCCUGUCAGAUUCUGGUGAAUCUGCGAAUUCUGCUGU [G19U U26G] showed a self-cleavage of 0.256. For GGGGGCCACAGCAGAAGCUUUCACGCCGCGGCCCCUGUCAGAUUCUGGUGAAUCUGCGAAUUCUGCUGU [G19U U26C], the self-cleavage was 0.256. Variant GGGGGCCACAGCAGAAGCUUUCACGUCGCGGCCCCUGUCAGAUUCUGGUGAAUCUGCGAAUUCAGCUGU [G19U U64A] has a self-cleavage of 0.233. In the case of GGGGGCCACAGCAGAAGCUUUCACGUCGCGGCCCCUGUCAGAUUCUGGUGAAUCUGCGAAUUCGGCUGU [G19U U64G], the self-cleavage is reported as 0.192. Work on GGGGGCCACAGCAGAAGCUUUCACGUCGCGGCCCCUGUCAGAUUCUGGUGAAUCUGCGAAUUCCGCUGU [G19U U64C] yielded a self-cleavage of 0.249. In the case of GGGGGCCACAGCAGAAGCUUUCACGUCGCGGCCCCUGUCAGAUUCUGGUGAAUCUGCGAAUUCUGGUGU [G19U C66G], the self-cleavage is reported as 0.27. GGGGGCCACAGCAGAAGCUUUCACGUCGCGGCCCCUGUCAGAUUCUGGUGAAUCUGCGAAUUCUGAUGU [G19U C66A] gave a self-cleavage of 0.271. GGGGGCCACAGCAGAAGCUUUCACGUCGCGGCCCCUGUCAGAUUCUGGUGAAUCUGGGAAUUCUGCUGU [G19U C57G] gave a self-cleavage of 0.218. In the case of GGGGGCCACAGCAGAAGCUUUCACGUCGCGGCCCCUGUCAGAUUCUGGUGAAUCUGUGAAUUCUGCUGU [G19U C57U], the self-cleavage is reported as 0.21. Variant GGGGGCCACAGCAGAAGCGAUCCCGUCGCGGCCCCUGUCAGAUUCUGGUGAAUCUGCGAAUUCUGCUGU [U20A A23C] has a self-cleavage of 0.149. Work on GGGGGCCACAGCAGAAGCUUUCACGUCGCGGCCCCUGUCAGAUUCUGGUGAAUCUGCGAAUUAUGCUGU [G19U C63A] yielded a self-cleavage of 0.179. With GGGGGCCACAGCAGAAGCUUCCACGUCGCGGCCCCUGUCAGAUUCUGGUGAAUCUGCGAAUUCUGCUGU [G19U U21C] the self-cleavage was 0.218. For GGGGGCCACAGCAGAAGCUUUCACGUCGCGGCCCCUGUCAGAUUCUGGUGAAUUUGCGAAUUCUGCUGU [G19U C54U], the self-cleavage was 0.625. GGGGGCCACAGCAGAAGCUUUCACGUCGCGGCCCCUGUCAGAUUCUGGUGAAUGUGCGAAUUCUGCUGU [G19U C54G] gave a self-cleavage of 0.317. Work on GGGGGCCACAGCAGAAGCUUUCACGUCGCGGCCCCUGUCAGAUUCUGGUGAAUAUGCGAAUUCUGCUGU [G19U C54A] yielded a self-cleavage of 0.182. GGGGGCCACAGCAGAAGCGAUCACGUCGCGGCCCCUGUCAGCUUCUGGUGAAUCUGCGAAUUCUGCUGU [U20A A42C] showed a self-cleavage of 0.0988. GGGGGCCACAGCAGAAGCGAUCACGUCGCGGCCCCUGUCAGGUUCUGGUGAAUCUGCGAAUUCUGCUGU [U20A A42G] showed a self-cleavage of 0.0639.

Reference: the RNAGym collection of RNA variant scans (doi:10.7554/elife.80360)
